The target of one assay is HLA-A*26:03. The experiment in a line: IEDB peptide-MHC binding, purified MHC/direct/fluorescence; filed as Kd, often an IC50 or EC50 that approximates it; ≥ and ≤ were set here for values at or beyond the usual limits of such assays.
In assay [1] the target is HLA-A*02:01. The assay can be described thus: IEDB peptide-MHC binding, purified MHC/competitive/fluorescence; ≥ and ≤ were set here for values at or beyond the usual limits of such assays. The note with it: source organism: Monodelphis domestica.
In the next assay the target is HLA-A*68:02. Described as above. The note with it: source organism: Monodelphis domestica.
The target in a further assay is HLA-C*08:02. The assay can be described thus: IEDB peptide-MHC binding, purified MHC/direct/fluorescence; filed as Kd, often an IC50 or EC50 that approximates it; ≥ and ≤ were set here for values at or beyond the usual limits of such assays. The note with it: source organism: Hylobates lar.
The target in a further assay is HLA-A*32:07. The assay can be described thus: IEDB peptide-MHC binding, purified MHC/competitive/fluorescence; filed as Kd, often an IC50 or EC50 that approximates it; ≥ and ≤ were set here for values at or beyond the usual limits of such assays. The note with it: source organism: Mycobacterium tuberculosis C.
A further assay deals with HLA-B*15:42. The description is as above.
In a further assay the target is HLA-B*45:06. Described as above.
A further assay has as its target HLA-B*83:01. The assay is described as above.
Assay [2] concerns the target HLA-A*02:01. The assay can be described thus: IEDB peptide-MHC binding, purified MHC/direct/fluorescence; filed as Kd, often an IC50 or EC50 that approximates it; ≥ and ≤ were set here for values at or beyond the usual limits of such assays.
Assay [3] concerns the target HLA-A*02:03. Described as above. The note with it: source organism: Cryptosporidium parvum Iowa II.
The next assay concerns the target HLA-A*02:11. The assay is described as above. The note with it: source organism: Cryptosporidium parvum Iowa II.
A further assay deals with HLA-A*02:12. The assay is described as above. The note with it: source organism: Cryptosporidium parvum Iowa II.
Another assay addresses HLA-A*02:16. The description is as above. The note with it: source organism: Cryptosporidium parvum Iowa II.
The target of another assay is HLA-A*02:19. The description is as above. The note with it: source organism: Cryptosporidium parvum Iowa II.
The next assay deals with HLA-A*03:01. Described as above.
In another assay the target is HLA-A*23:01. The description is as above. The note with it: source organism: Cryptosporidium parvum Iowa II.
The target of the next assay is HLA-A*24:03. Described as above. The note with it: source organism: Cryptosporidium parvum Iowa II.
Another assay concerns the target HLA-A*26:01. The assay is described as above. The note with it: source organism: Cryptosporidium parvum Iowa II.
A further assay concerns the target HLA-A*29:02. Described as above. The note with it: source organism: Cryptosporidium parvum Iowa II.
Another assay has as its target HLA-B*15:01. The description is as above.
In another assay the target is HLA-B*27:03. The description is as above. The note with it: source organism: Cryptosporidium parvum Iowa II.
The target in the next assay is HLA-B*46:01. Described as above.
Another assay addresses HLA-B*51:01. The assay is described as above. The note with it: source organism: Cryptosporidium parvum Iowa II.
In another assay the target is HLA-B*57:01. Described as above.
Another assay deals with HLA-C*05:01. The assay is described as above. The note with it: source organism: Cryptosporidium parvum Iowa II.
For a further assay, the target named is HLA-A*68:23. The experiment in a line: IEDB peptide-MHC binding, purified MHC/competitive/fluorescence; filed as Kd, often an IC50 or EC50 that approximates it; ≥ and ≤ were set here for values at or beyond the usual limits of such assays. The note with it: source organism: Cryptosporidium parvum Iowa II.
In the next assay the target is HLA-C*14:02. The description is as above. The note with it: source organism: Cryptosporidium parvum Iowa II.
A further assay concerns the target HLA-A*01:01. The assay can be described thus: IEDB peptide-MHC binding, purified MHC/direct/fluorescence; filed as Kd, often an IC50 or EC50 that approximates it; ≥ and ≤ were set here for values at or beyond the usual limits of such assays. The note with it: source organism: Bacillus anthracis.
The target in the next assay is HLA-A*11:01. The assay is described as above. The note with it: source organism: Bacillus anthracis.
The target in the next assay is HLA-A*26:02. The description is as above. The note with it: source organism: Picosynechococcus sp. PCC 7002.
In a further assay the target is HLA-A*31:01. The description is as above. The note with it: source organism: Bacillus anthracis.
For a further assay, the target named is HLA-A*69:01. The assay is described as above. The note with it: source organism: Bacillus anthracis.
A further assay addresses HLA-B*07:02. The description is as above. The note with it: source organism: Bacillus anthracis.
In another assay the target is HLA-B*08:01. The description is as above. The note with it: source organism: Picosynechococcus sp. PCC 7002.
Another assay addresses HLA-B*27:05. The assay is described as above. The note with it: source organism: Bacillus anthracis.
Another assay concerns the target HLA-B*39:01. The assay is described as above. The note with it: source organism: Picosynechococcus sp. PCC 7002.
The next assay addresses HLA-B*40:01. The description is as above. The note with it: source organism: Bacillus anthracis.
The next assay deals with HLA-B*48:01. The assay is described as above. The note with it: source organism: Bacillus anthracis.
The target in the next assay is HLA-B*58:01. Described as above. The note with it: source organism: Bacillus anthracis.
Assay [4] addresses HLA-A*02:03. The experiment in a line: IEDB peptide-MHC binding, purified MHC/competitive/fluorescence; filed as Kd, often an IC50 or EC50 that approximates it; ≥ and ≤ were set here for values at or beyond the usual limits of such assays. The note with it: source organism: Bacillus anthracis str. A0488.
The target in the next assay is HLA-B*15:17. Described as above. The note with it: source organism: Bacillus anthracis str. A0488.
[5] abbreviates: source organism: Mycobacterium tuberculosis C.
Where [6] appears, read: source organism: Cryptosporidium parvum Iowa II.
Setting [7] is: source organism: Bacillus anthracis.

Some results are limits rather than exact numbers.

The sequence GTIIAHGGL registered a Kd with HLA-A*26:03 (source organism: Rickettsia prowazekii) not below 20 µM.

Turning to YSLEYFQFV, the figures for the IC50 with HLA-A*02:01 [1] and with HLA-A*68:02 were 0.0592 µM and 0.106 µM, respectively. Moreover, the Kd in the assay with HLA-C*08:02 is not below 20 µM.

RIRAANLPI: the Kd is 0.0333 µM with HLA-A*32:07, not below 5 µM with HLA-B*15:42 (setting [5]), not below 5 µM in the assay with HLA-B*45:06 (setting [5]) and not below 5 µM with HLA-B*83:01 (setting [5]).

With MPMSMPIPM, the Kd in the assay with HLA-A*02:01 [2] (setting [6]), with HLA-A*02:03 [3], with HLA-A*02:11, in the assay with HLA-A*02:12, with HLA-A*02:16 and with HLA-A*02:19 was not below 20 µM throughout. The Kd with HLA-A*03:01 (setting [6]), with HLA-A*23:01, with HLA-A*24:03, in the assay with HLA-A*26:01, with HLA-A*29:02 and with HLA-B*15:01 (setting [6]) was not below 20 µM in each case. Besides, the Kd in the assay with HLA-B*27:03 is not below 20 µM; in the assay with HLA-B*46:01 (setting [6]) it was not below 20 µM; with HLA-B*51:01, 5.84 µM; with HLA-B*57:01 (setting [6]) it was not below 20 µM; with HLA-C*05:01 it was not below 20 µM; with HLA-A*68:23, 0.0027 µM. The Kd was not below 5 µM with HLA-B*15:42 (setting [6]), not below 5 µM with HLA-B*45:06 (setting [6]), 0.0395 µM with HLA-B*83:01 (setting [6]) and 0.125 µM in the assay with HLA-C*14:02.

DTVLFNAGL: the Kd with HLA-A*01:01 is not below 20 µM; with HLA-A*02:01 [2] (setting [7]) it was not below 20 µM; in the assay with HLA-A*03:01 (setting [7]), not below 20 µM; with HLA-A*11:01, not below 20 µM; in the assay with HLA-A*26:02, 0.041 µM; with HLA-A*26:03 (source organism: Picosynechococcus sp. PCC 7002), 0.054 µM. Moreover, the Kd with HLA-A*31:01 was not below 20 µM; with HLA-A*69:01, not above 0.001 µM; with HLA-B*07:02 it was not below 20 µM; in the assay with HLA-B*08:01, not below 20 µM; with HLA-B*15:01 (setting [7]) it was not below 20 µM; with HLA-B*27:05, not below 20 µM. Moreover, the Kd with HLA-B*39:01, with HLA-B*40:01, in the assay with HLA-B*46:01 (setting [7]), with HLA-B*48:01, in the assay with HLA-B*57:01 (setting [7]) and in the assay with HLA-B*58:01 was not below 20 µM throughout. Moreover, the Kd with HLA-A*02:03 [4] and in the assay with HLA-B*15:17 was not below 20 µM throughout.

The values are drawn from the Immune Epitope Database (IEDB).
